Data published in paper PMC12105683, “Generation of Conformation‐Specific Monoclonal Antibodies for Integral Membrane Proteins” (Current Protocols, 2025).
Numbering of substitutions follows the chain as printed. Values belong to the binder of their own block, whether it stands above or below them.

Experiments:
Settings in all cases: both partners purified
GluA1 AMPAR = biological target: T1, GluA1 AMPAR (Rattus norvegicus, UniProt P19490-2); test: BLI; Octet RED384; mAb (25 µg/ml) captured on anti-mouse IgG Fc capture (AMC) biosensors, iGluR as analyte; TBS with 0.075% LMNG or 1 mM DDM; association 900 s, dissociation 1800 s; 1:1 model, global fit
T1 construct: GluA1 subunit of the AMPA receptor; source: HEK293S GnTI- cells/tSA201 cells, baculovirus transduction (pEG BacMam)

[1] = biological target: T2, GFP-conjugated GluN1/GluN3A receptor (Rattus norvegicus, UniProt P35439;Q9R1M7); test: SEC; fluorescence-detection SEC (FSEC) shift assay; receptor incubated with mAbs individually and in combination at a 1:2 molar ratio; Superose 6 Increase 10/300 GL, 20 mM Tris, 150 mM NaCl, 0.075% LMNG
T2 construct: GluN1 subunit of the NMDA receptor; GluN3A subunit of the NMDA receptor; also called GluN1/GluN3A NMDAR; GluN1/N3A NMDAR; source: HEK293S GnTI- cells/tSA201 cells, baculovirus transduction (pEG BacMam); copies: 2 + 2

GluA3 AMPAR = biological target: T3, GluA3 AMPAR (Rattus norvegicus, UniProt P19492); test: BLI; Octet RED384; mAb (25 µg/ml) captured on anti-mouse IgG Fc capture (AMC) biosensors, iGluR as analyte; TBS with 0.075% LMNG or 1 mM DDM; association 900 s, dissociation 1800 s; 1:1 model, global fit
T3 construct: GluA3 subunit of the AMPA receptor; source: HEK293S GnTI- cells/tSA201 cells, baculovirus transduction (pEG BacMam)

TARP γ‐2 [2] = biological target: T4, TARP γ‐2 (printed accession Q71RJ2 is rat; table …, UniProt Q71RJ2); test: as above
T4 construct: TARP γ-2 (stargazin), AMPAR auxiliary subunit; also called transmembrane AMPAR regulatory protein γ-2; source: HEK293S GnTI- cells/tSA201 cells, baculovirus transduction (pEG BacMam)
T4 sequence (Q71RJ2 whole entry, one chain of several): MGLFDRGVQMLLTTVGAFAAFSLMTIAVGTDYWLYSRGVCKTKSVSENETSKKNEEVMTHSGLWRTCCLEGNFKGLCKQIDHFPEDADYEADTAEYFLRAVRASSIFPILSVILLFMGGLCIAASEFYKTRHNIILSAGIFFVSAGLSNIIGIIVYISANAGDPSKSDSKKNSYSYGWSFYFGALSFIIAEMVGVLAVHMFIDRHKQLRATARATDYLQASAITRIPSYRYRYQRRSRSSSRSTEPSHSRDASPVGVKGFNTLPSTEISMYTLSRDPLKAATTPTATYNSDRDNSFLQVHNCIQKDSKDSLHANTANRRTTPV

TARP γ‐8 [3] = biological target: T5, TARP γ‐8 (Mus musculus, UniProt Q8VHW2); test: SEC; fluorescence-detection SEC (FSEC) shift assay; receptor incubated with mAbs individually and in combination at a 1:2 molar ratio; Superose 6 Increase 10/300 GL, 20 mM Tris, 150 mM NaCl, 0.075% LMNG
T5 construct: TARP γ-8, AMPAR auxiliary subunit; also called transmembrane AMPAR regulatory protein γ-8; source: HEK293S GnTI- cells/tSA201 cells, baculovirus transduction (pEG BacMam)

GluA2 AMPAR = biological target: T6, GluA2 AMPAR (Rattus norvegicus, UniProt P19491); test: BLI; Octet RED384; mAb (25 µg/ml) captured on anti-mouse IgG Fc capture (AMC) biosensors, iGluR as analyte; TBS with 0.075% LMNG or 1 mM DDM; association 900 s, dissociation 1800 s; 1:1 model, global fit
T6 construct: GluA2 subunit of the AMPA receptor; source: HEK293S GnTI- cells/tSA201 cells, baculovirus transduction (pEG BacMam)

GluN2A = biological target: T7, GluN2A (Rattus norvegicus, UniProt P35439;G3V9C5); test: as above
T7 construct: also called GluN2A subunit; source: HEK293S GnTI- cells/tSA201 cells, baculovirus transduction (pEG BacMam)

TARP γ‐8 [4] = biological target: T5, TARP γ‐8; test: as above
TARP γ‐2 [5] = biological target: T4, TARP γ‐2; test: SEC; fluorescence-detection SEC (FSEC) shift assay; receptor incubated with mAbs individually and in combination at a 1:2 molar ratio; Superose 6 Increase 10/300 GL, 20 mM Tris, 150 mM NaCl, 0.075% LMNG
GluN1 = biological target: T8, GluN1 (Xenopus laevis, UniProt A0A1L8F5J9); test: BLI; Octet RED384; mAb (25 µg/ml) captured on anti-mouse IgG Fc capture (AMC) biosensors, iGluR as analyte; TBS with 0.075% LMNG or 1 mM DDM; association 900 s, dissociation 1800 s; 1:1 model, global fit
T8 construct: also called GluN1 subunit; source: HEK293S GnTI- cells/tSA201 cells, baculovirus transduction (pEG BacMam)

GluN1/GluN2A NMDAR = biological target: T9, GluN1/GluN2A NMDAR (Rattus norvegicus, UniProt P35439;G3V9C5); test: SEC; fluorescence-detection SEC (FSEC) shift assay; receptor incubated with mAbs individually and in combination at a 1:2 molar ratio; Superose 6 Increase 10/300 GL, 20 mM Tris, 150 mM NaCl, 0.075% LMNG
T9 construct: GluN1 subunit of the NMDA receptor; GluN2A subunit of the NMDA receptor; also called GluN1/N2A receptor; GluN1/N2A; source: HEK293S GnTI- cells/tSA201 cells, baculovirus transduction (pEG BacMam); copies: 2 + 2

GluN3A = biological target: T10, GluN3A (Rattus norvegicus, UniProt P35439;Q9R1M7); test: BLI; Octet RED384; mAb (25 µg/ml) captured on anti-mouse IgG Fc capture (AMC) biosensors, iGluR as analyte; TBS with 0.075% LMNG or 1 mM DDM; association 900 s, dissociation 1800 s; 1:1 model, global fit
T10 construct: also called GluN3A subunit; source: HEK293S GnTI- cells/tSA201 cells, baculovirus transduction (pEG BacMam)

B1: 11B8 mAb (antibody, V domains shown)
VH: EVKLLESGGGLVQPGGSLKLSCAASGFDFSEYWMSWVRQAPGKGLEWIGEINPDSSSIDYTPSLKDKIIISRDNAKKTLYLQLSKVRSEDTALYYCARPRGNYVVMDYWGQGTSVTVSS
VL: NIVLTQSPASLAVSLGQRATISCRASESVDSYGSSFVHWYQQKPGQPPKLLIFLASKLESGVPARFSGSGSRTDFTLTIDPVEADDAATYYCQQTNEDPYTFGGGTKLEIK
notes: IgG2b/kappa; source: mouse hybridoma, bioreactor flask; purified (Protein A/G agarose)
koff (GluA1 AMPAR): < 1e-07 s⁻¹
kon (GluA1 AMPAR): 123000 M⁻¹ s⁻¹

B2: 3G9 mAb (antibody, V domains shown)
VH: KVQLQQSGAGLVKPGASVKLSCKASGYTFTDYIIHWIKQRSGQGLEWIGWFYPGSGSIKYNEKFKDKATLTADYSSSTVYMELSRLTSEDSAVYFCARHEHRGYYGDYPMDYWGQGTSVTVSS
VL: DIVMSQSPSSLAVSVGEKVTMSCKSSQSLLYSNNQKNYLAWYQQKPGQSPKLLIYWASTRESGVPDRFTGSGSGTDFTLTISSVKAEDLAVYYCQQYYSYPPYTFGGGTKLEIK
notes: IgG2a/kappa; source: purified (Protein A/G agarose)
binding result [1]: binds

B3: 5B2 mAb (antibody, V domains shown)
VH: EVQLQESGPSLVKPSQTLSLTCSVTGDSITSGYWNWIRKFPGNKLEYMGHISYRGSTYYNPSLKSRISITRDTSKNQYYLQLNSVTTEDTATYYCASRSYDEGFDSWGQGTTLTVSS
VL: NIVLTQSPASLAVSLGQRATISCRASESLDSYGNSFMHWYQQKPGQPPKLLIYLASNLESGVPARFSGSGSRTDFTLTIDPVEADDAATYYCQQNKEDLLTFGAGTKLELK
notes: IgG1/kappa; source: mouse hybridoma, bioreactor flask; purified (Protein A/G agarose)
Kd (GluA3 AMPAR): < 1 pM
koff (GluA3 AMPAR): < 1e-07 s⁻¹
kon (GluA3 AMPAR): 758000 M⁻¹ s⁻¹

B6: 3D2 mAb (antibody, V domains shown)
VH: QVQLQQSGAELMKPGASVKISCKATGYTFRSYWIEWLKQRPGHGLEWIGEILPGSGRTNYNEKFKGKATITADTSSNTAYMQLSSLTSEDSAVYYCTRSRGTMITREFTYWGQGALVTVSA
VL: DIVLTQSPASLAVSLGQRATISCRASESVEYYGTTLMQWYQQKPGQPPKLLIYAASNVDSGVPARFSGSGSGTDFSLNIHPVEEDDIAMYFCQQSRKVPSTFGGGTKLEIK
notes: as for B3
koff (GluN2A): < 1e-07 s⁻¹
kon (GluN2A): 1.85e+06 M⁻¹ s⁻¹

B8: 5F11 mAb (antibody, V domains shown)
VH: QGQMQQSGAELVKPGASVKLSCKTSGFSFSTSYINWLKQKPGQSLEWIAWIYAGTDGTSYNQKFTDKAQLTVDTSSSTAYMQFSSLTTDDSAIYYCAREGIYYGNYAGFTYWGQGTLVTVSA
VL: DIVMTQSPSSLAVTAGEKVTMRCKSSQSLLWSVNQNNYLSWYQQKQGQPPKLLIYGASIRESWVPDRFTGSGSGTDFTLTISNVHAEDLAVYYCQHNHGSFLPYTFGGGTKLEIK
notes: as for B3
Kd (GluN1): 0.43 nM
koff (GluN1): 6.19e-05 s⁻¹
kon (GluN1): 142000 M⁻¹ s⁻¹
binding result (GluN1/GluN2A NMDAR): binds

B9: 5E3 mAb (antibody, V domains shown)
VH: QVQLQQPGAELVRPGASVKLSCKASGYSFTSYWMNWVKQRPGQGLEWIGMIHPSDSESRLNQKFKDKATLTVDKSSSTAYMQLRSPTSEDSAVYYCARSAYYRSFDYWGQGTTLTVSS
VL: DVLMTQTPLSLPVSLGDQASISCRSSQNIVHSNGNTYLEWYLQKPGQSPKLLIHKVSNRFSGVPDRFSGSGSGTDFTLKISRVEAEDLGVYYCFQGSHVPYTFGGGTKLEIK
notes: IgG1/kappa; source: purified (Protein A/G agarose)
Kd (GluN3A): 1.4 nM
koff (GluN3A): 1.99e-05 s⁻¹
kon (GluN3A): 83700 M⁻¹ s⁻¹

B10: 2D3 mAb (antibody, V domains shown)
VH: EVQLVESGGGLVKPGGSLKLSCAASGFAFSTYDMSWVRQTPEKRLEWVAYISGGGGTTYYPGTVKGRFTISRDNAKNTLYLQMSSLKSEDTAMYYCARQGYGYSMDYWGQGTSVTVSS
VL: DVVMTQTPLSLPVSLGDQASISCRSSQSLVHSNGDTYLLWYLQKPGQSPKLLIYKVSNRFSGVPDRFSGSGSGTDFTLKISRVEAEDLGVYFCSQSTHVPRTFGGGTKLEIK
notes: IgG2b/kappa; source: purified (Protein A/G agarose)
binding result [1]: binds

Other lines, results leading:

Kd (TARP γ‐2 [2]): 4.5 nM
koff (TARP γ‐2 [2]): 0.000119 s⁻¹
kon (TARP γ‐2 [2]): 50300 M⁻¹ s⁻¹
binding result (TARP γ‐8 [3]): binds
B4: 4B2 mAb (antibody, V domains shown)
VH: EVQLQQSGAELVRSGASVKLSCTGSGFNIKDYYMHWVKQRPEQGLEWIGWIDPENGDTEYAPKFQGKATMTADTSSNTAYLHLSSLSSEDTAVYYCKGDYRYDDGGNYWGQGTSVTVSS
VL: DIQMTQTTSSLSASLGDRVTISCRASQDISNYLNWFQQKPDGTVKLLIYYTSRLHSGVPSRFSGSGSGTDYSLTINNLEQEDIATYFCQQGDSLPWTFGGGTKLEIK
notes: IgG2a/kappa; source: mouse hybridoma, bioreactor flask; purified (Protein A/G agarose)

Kd (GluA2 AMPAR): < 1 pM
koff (GluA2 AMPAR): < 1e-07 s⁻¹
kon (GluA2 AMPAR): 1.02e+06 M⁻¹ s⁻¹
B5: 15F1 mAb (antibody, V domains shown)
VH: QAQLKESGPGLVAPSQSLSITCTVSGFSLTNYGVHWVRQPPGKGLEWLGVIWAGGSTNYNSALMSRVSISKDNSKSQVFLKMNSLQTDDTVMYYCAREDYDYDWHFDVWGAGTTVTVSS
VL: B4 VL with D1E, N34S, F36Y, T69I, I83F, D92N, S93T, W96L, G100A, I106L
notes: as for B3

Kd (TARP γ‐8 [4]): 3.1 nM
koff (TARP γ‐8 [4]): 0.00103 s⁻¹
kon (TARP γ‐8 [4]): 45900 M⁻¹ s⁻¹
binding result (TARP γ‐2 [5]): binds
B7: 9B5 mAb (antibody, V domains shown)
VH: EVQLQQSGAELVRSGASVKLSCTTSGFNIKDYYMHWVKQRPEQGLEWIGWIDPENGDAEYAPKFQGKATMTADTSSNTAYLQLSSLTSEDTAVYYCNSGVAYWGQGTLVTVSA
VL: not shown
notes: as for B4
